# Experimental data as given in PMC10769870, “Bdellovibrio bacteriovorus uses chimeric fibre proteins to recognize and invade a broad range of bacterial hosts” (Nature Microbiology, 2024).
# Experiments:
# [1] = biological target: the molecule itself; experiment: crystal structure; Bd2439_(837–1,107), PACT H3 (P2_122_1) and MIDASplus E9 (P4); with ethylene glycol (1.6 Å) or GlcNAc–MurNAc (1.84 Å)
# [2] = biological target: the molecule itself; experiment: crystal structure; Bd2133_(910–1,031), Morpheus A4, spacegroup P2_12_12_1, 1 Å
# [3] = biological target: the molecule itself; experiment: crystal structure; Bd1334_(818–1,151), Morpheus C1, spacegroup C2, 2.6 Å
# [4] = biological target: the molecule itself; experiment: crystal structure; Bd1334_(914–1,151), PACT B9, spacegroup R3, 1.4 Å
# [5] = biological target: the molecule itself; experiment: crystal structure; Bd2740_(518–627), MIDAS F1, spacegroup P2_12_12_1, 2.6 Å
# [6] = biological target: the molecule itself; experiment: crystal structure; Bd2734_(691–843), JCSG+ A3, spacegroup P2_1, 1.8 Å
# [7] = biological target: the molecule itself; experiment: crystal structure; Bd2133_(662–1,031), native and selenomethionine-labelled, Morpheus B3, spacegroup P6_322, 2.5 Å
# [8] = biological target: the molecule itself; experiment: crystal structure; Bd3182_(632–922) crystallised by vapour diffusion at 18 °C in three forms (Morpheus C1, P2_1; Morpheus G12, I2; Proplex E3, another P2_1); the 1.1 Å form is described
protein,measurement,setting,value
"Bd2439_(837–1,107), tip of the NS74 MAT fibre protein Bd2439 (domain or fragment, Bdellovibrio bacteriovorus HD100, UniProt Q6MKF5 837-1107, looked up, Bd2439 of Bdellovibrio bacteriovorus HD100, G837-D1107 (β-helix N850-V968, R969 linker, TNF-like tip S970-D1107); pET26b construct; source: E. coli BL21 RIPL (DE3), purified (Ni-NTA, Superdex 200)) GGLDIVNNATGDDNRDDLNIRTYGATETSSLIMLRARGTASAPAAVQTGDRLGGVLFRGWNGTAWMGSGQILSVAEENFTTAVKTNLQFHVGGAGEAMRISNTGNVGIGTTTTTEKLNVQGNVAVSGEITSVRSWGIKRGPTSFSANYINVWNSGYHVGSSIDCTTSTTGCRILKAGTYEIRCVQRAGTSGNSVYVGIALNGDRTALESRNDVLWNHSHTAYSGSYTESNFMGTLSANDLITCGAPVNTMAADLVYAVPAYNGTMQIKRVD",stoichiometry N,[1],3
"Bd2133_(910–1,031), tip-only variant of Bd2133 (domain or fragment, Bdellovibrio bacteriovorus HD100, UniProt Q6ML84 910-1031, looked up, Bd2133 of Bdellovibrio bacteriovorus HD100, β-sandwich tip domain, A910 to the C-terminus (1031); Made by deletion from the plasmid of Bd2133_(662–1,031); also called tip-only variant (A910 onwards); source: E. coli BL21 RIPL (DE3), purified (Ni-NTA, TEV, Ni-NTA, Superdex 200)) AATWTSLGLTSLGAVSMTTTTEQSFTLPVAAQTASQILVYLRCHSGNASTTGADDIRIYTKEGAATYDHYLLMFPYAGQGAVGYNSDSFWLPKTSDNKIYLAHSMAPGSANSGCNFYITGYK",binding result,[2],binds
"Bd1334_(818–1,151), tip of the NS74 MAT fibre protein Bd1334 (domain or fragment, Bdellovibrio bacteriovorus HD100, UniProt Q6MNC5 818-1151, looked up, Bd1334 of Bdellovibrio bacteriovorus HD100, S818 to the C-terminus (W1151); The cloning paragraph prints this construct as Bd1334_(818–1,031); everywhere else it is 818–1,151; source: E. coli BL21 RIPL (DE3), purified (Ni-NTA, TEV, Ni-NTA, Superdex 200)) SSAETDFATAVNGNLRFYTAAAGTDSERMRITGSGLVGIGTPAPAVPLQVATRVPSSAVHPNRAGIQAVGEGTDVGGRISALVSSTIEMATFSGYQSAGTLAAPTAVTSGQSLTSLTAFAYNGTQYQSGGNASINFVATEAHTASAGGAKIIFNTTNNGATGSTEKVVIDQNGNVGVGVGAPTAKMDVNGGIKQPNYGIISAVRNSGGVTASMPWTNAYVLAHQGEMHQWVAGGPILQDSVTGCNAGPDAGVKFDSIATSWGGPYKVIFHTTGSNGAIHLEWSGWQVSLKNSAGTELAIGMGQVFATLHYDPAVSNWRVEHMFGRINNTNFTCW",stoichiometry N,[3],3
"Bd1334_(914–1,151) (domain or fragment, Bdellovibrio bacteriovorus HD100, UniProt Q6MNC5 914-1151, looked up, Bd1334 of Bdellovibrio bacteriovorus HD100, S914 to the C-terminus (W1151); also called Bd1334 from S914 onwards; source: E. coli BL21 RIPL (DE3), purified (Ni-NTA, TEV, Ni-NTA, Superdex 200)) SAGTLAAPTAVTSGQSLTSLTAFAYNGTQYQSGGNASINFVATEAHTASAGGAKIIFNTTNNGATGSTEKVVIDQNGNVGVGVGAPTAKMDVNGGIKQPNYGIISAVRNSGGVTASMPWTNAYVLAHQGEMHQWVAGGPILQDSVTGCNAGPDAGVKFDSIATSWGGPYKVIFHTTGSNGAIHLEWSGWQVSLKNSAGTELAIGMGQVFATLHYDPAVSNWRVEHMFGRINNTNFTCW",stoichiometry N,[4],3
"Bd2740_(518–627), tip of the NS74 MAT fibre protein Bd2740 (domain or fragment, Bdellovibrio bacteriovorus HD100, UniProt Q6MJN2 518-627, looked up, Bd2740 of Bdellovibrio bacteriovorus HD100 (627 aa), C-type lectin fold tip, residues 518-627 (the results print 517-626); Synthesised gene in pET29a; an Ala-Ser linker follows the hexa-His tag; source: E. coli BL21 RIPL (DE3), purified (Ni-NTA, Superdex 200)) APCDSGWTLINKGDPFCAKQQSVTGTNFATSMTQCLNNGGKLCDLQEAVGMCQTGFIPSNTTLWISQLADNSSAHVINCTSGSWSAGFYGFGVTVDGSNPILPYCCKGRR",stoichiometry N,[5],3
"Bd2734_(691–843), tip-only variant of the NS74 MAT fibre protein Bd2734 (domain or fragment, Bdellovibrio bacteriovorus HD100, UniProt Q6MJN8 691-843, looked up, Bd2734 of Bdellovibrio bacteriovorus HD100 (843 aa), TNF-like tip, T691-L843; pET26b construct; The count of three copies rests on the discussion's word that trimerization is invariant in the six solved MATs; source: E. coli BL21 RIPL (DE3), purified (Ni-NTA, Superdex 200)) TSTLMGSLTMLGKAGCQWEHANTSFASFSNVVACNTATVTGLASAPTEGKIPGIRFANLPAGDYELTVLIFSMYPVDAGVYCRYRLWDGTNFSGMAGAYESEIYQMTGLFSYATDQTNLTFYVQAQTLTATKNCRADITVPGQDKMQIYLKKL",binding result,[6],binds
"Bd2133_(662–1,031), tip of the NS74 MAT fibre protein Bd2133 (domain or fragment, Bdellovibrio bacteriovorus HD100, UniProt Q6ML84 662-1031, looked up, Bd2133 of Bdellovibrio bacteriovorus HD100, N662 to the C-terminus (K1031); A selenomethionine-labelled form was also crystallised for phasing; source: E. coli BL21 RIPL (DE3), purified (Ni-NTA, TEV, Ni-NTA, Superdex 200)) NSSGALGLSTSGSERMRIDTSGNLGLGTAAPTSALHVERTQDADTTVQVRNTHDTGTAAGARFIASNEKSGIWFGISGTSNTNTGLGSPGDAYIYNAAGTATGKNLNVINNQTGNIHFFAGSTATGTPRMTITNTGLVGINTAAPLQKLHVENGNMVITGTAPAYQLKENDTTDQNWQMGINNGNLRFATQNDALNSSSDKVVISQAGNVGIGATAPTAKLEVAGTIHSTSGGIKFPDGSVQTTAASGAATWTSLGLTSLGAVSMTTTTEQSFTLPVAAQTASQILVYLRCHSGNASTTGADDIRIYTKEGAATYDHYLLMFPYAGQGAVGYNSDSFWLPKTSDNKIYLAHSMAPGSANSGCNFYITGYK",stoichiometry N,[7],3
"Bd3182_(632–782), mature tip region of the MAT (mosaic adhesive trimer) fibre protein Bd3182 (domain or fragment, Bdellovibrio bacteriovorus HD100, UniProt Q6MIH5 632-782, looked up, Bd3182 of Bdellovibrio bacteriovorus HD100, S74-group MAT fibre protein; expressed as residues 632-922, the S74 chaperone/protease domain cuts itself off at catalytic residue S782; the fibre part, labelled 632-782, was crystallised; the model traces P647 to A781; The methods name the cloned construct once as 668-922 and elsewhere as 632-922; also called Bd3182_(632–922) (construct before …)) GTNDAFSLSFETNNTPRMTIDDVGRVGVGTTAPTSALHVIGTGEVARFVTSATGGVVIDSTALNYNPSLIYRKTNINRWSMMVNAASETGGNAGSNLSILRYDDTGATLGAAVTIDRASGFFGINTAAPAYNIHVTGTAGLSTGSAWTVAS",stoichiometry N,[8],3
